Laboratory results: patent publication US20260265349A1 (GRIFFITH UNIVERSITY, published 2026)
Values joined by “and” are separate entries in the source; they are usually repeats but may differ in a detail not shown here. Equal entries are not always repeated. Where two headings read alike, the source gives them in different places.

Experiments:
[1] = target: T1, norovirus GII.4 Sydney-2012 virus-like particles (norovirus GII.4 Sydney-2012, UniProt P54635 1-538); assay: direct ELISA, VLPs coated at 2 µg/mL, His-tagged nanobody detected with anti-His-HRP, OD490
T1 construct: also called GII.4 Sydney-2012 VLPs; GII.4 VLPs
T1 chain: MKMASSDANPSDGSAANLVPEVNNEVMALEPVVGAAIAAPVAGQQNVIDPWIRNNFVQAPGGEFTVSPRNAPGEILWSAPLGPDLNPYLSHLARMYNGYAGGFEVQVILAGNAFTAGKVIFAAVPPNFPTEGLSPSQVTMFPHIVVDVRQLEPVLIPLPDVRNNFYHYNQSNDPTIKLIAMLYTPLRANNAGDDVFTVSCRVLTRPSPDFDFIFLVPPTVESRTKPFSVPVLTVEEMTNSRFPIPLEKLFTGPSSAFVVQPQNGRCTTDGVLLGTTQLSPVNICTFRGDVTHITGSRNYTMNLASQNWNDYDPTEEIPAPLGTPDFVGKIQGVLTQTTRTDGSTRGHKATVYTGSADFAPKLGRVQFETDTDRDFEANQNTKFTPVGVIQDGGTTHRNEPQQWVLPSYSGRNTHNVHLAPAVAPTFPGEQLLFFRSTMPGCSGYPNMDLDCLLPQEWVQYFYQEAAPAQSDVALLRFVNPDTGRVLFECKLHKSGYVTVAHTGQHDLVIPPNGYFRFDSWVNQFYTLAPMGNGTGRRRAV

[2] = target: T2, norovirus GII.17 Kawasaki308 virus-like particles (norovirus GII.17 Kawasaki308); assay: direct ELISA on coated VLPs, heat map of OD492
T2 construct: also called GII.17 Kawasaki308 VLPs; GII.17 VLPs
T2 chain: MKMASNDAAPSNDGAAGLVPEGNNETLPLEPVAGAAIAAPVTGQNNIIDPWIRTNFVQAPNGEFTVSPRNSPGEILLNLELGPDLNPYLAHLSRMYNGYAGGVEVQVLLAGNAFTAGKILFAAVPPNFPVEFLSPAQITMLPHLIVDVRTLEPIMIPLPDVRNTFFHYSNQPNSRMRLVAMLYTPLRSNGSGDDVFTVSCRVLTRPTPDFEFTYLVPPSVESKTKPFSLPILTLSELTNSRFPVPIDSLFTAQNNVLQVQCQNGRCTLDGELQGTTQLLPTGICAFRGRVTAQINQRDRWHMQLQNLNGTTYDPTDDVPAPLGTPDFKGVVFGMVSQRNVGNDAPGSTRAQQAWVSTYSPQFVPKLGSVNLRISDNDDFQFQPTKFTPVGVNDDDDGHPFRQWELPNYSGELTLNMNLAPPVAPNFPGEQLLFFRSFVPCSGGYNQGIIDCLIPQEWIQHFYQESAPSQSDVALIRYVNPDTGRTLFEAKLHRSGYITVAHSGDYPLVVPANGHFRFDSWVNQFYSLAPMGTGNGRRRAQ

[3] = target: T3, norovirus GII.10 Vietnam 026 virus-like particles (norovirus GII.10 Vietnam 026); assay: direct ELISA on coated VLPs, heat map of OD492
T3 construct: also called GII.10 VLPs
T3 chain: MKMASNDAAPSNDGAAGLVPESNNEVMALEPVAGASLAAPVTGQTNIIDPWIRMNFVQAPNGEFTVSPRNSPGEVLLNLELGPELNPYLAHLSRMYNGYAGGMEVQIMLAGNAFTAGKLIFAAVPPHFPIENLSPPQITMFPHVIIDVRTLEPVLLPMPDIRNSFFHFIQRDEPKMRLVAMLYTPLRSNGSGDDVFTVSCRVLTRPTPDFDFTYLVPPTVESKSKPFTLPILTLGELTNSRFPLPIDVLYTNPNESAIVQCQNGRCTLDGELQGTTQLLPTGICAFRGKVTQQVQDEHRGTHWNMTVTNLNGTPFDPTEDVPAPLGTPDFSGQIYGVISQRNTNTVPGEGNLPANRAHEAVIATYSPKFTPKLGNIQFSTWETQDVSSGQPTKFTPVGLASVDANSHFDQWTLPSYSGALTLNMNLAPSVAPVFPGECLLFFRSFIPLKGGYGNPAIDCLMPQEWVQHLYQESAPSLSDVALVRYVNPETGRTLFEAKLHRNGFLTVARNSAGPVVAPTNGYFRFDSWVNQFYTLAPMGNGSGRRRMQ

[4] = target: T1, norovirus GII.4 Sydney-2012 virus-like …; assay: direct ELISA on coated VLPs
[5] = target: T4, norovirus GII.4 Sydney-2012 P domain (norovirus GII.4 Sydney-2012); assay: ITC, nanobody into P domain, 25 C
T4 construct: also called GII.4 P domain
T4 chain: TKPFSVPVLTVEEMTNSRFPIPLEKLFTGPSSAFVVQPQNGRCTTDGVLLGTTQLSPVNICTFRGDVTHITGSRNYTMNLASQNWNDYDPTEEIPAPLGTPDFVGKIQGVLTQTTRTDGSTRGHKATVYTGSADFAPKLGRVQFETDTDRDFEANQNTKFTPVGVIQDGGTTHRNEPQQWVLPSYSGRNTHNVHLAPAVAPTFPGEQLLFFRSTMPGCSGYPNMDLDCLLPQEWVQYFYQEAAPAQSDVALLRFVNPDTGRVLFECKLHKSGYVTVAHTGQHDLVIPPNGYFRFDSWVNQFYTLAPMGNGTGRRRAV
Description: (§1) Isothermal calorimetry (ITC) experiments were done using an ITC-200 (Malvern). Samples were prepared in PBS and filtered prior to the experiments. […] Injections were performed until saturation was achieved. To correct for heats of dilution from titrants control experiments were performed by titrating nanobodies into PBS. The heat associated with the control titration was subtracted from raw binding data prior to fitting. The data was fitted using a single set-binding model (Origin 7.0 software). Nanobody binding sites on the P domains were assumed to be identical. All ITC experiments were performed in triplicate with the average and standard deviation calculated.

[6] = target: T1, norovirus GII.4 Sydney-2012 virus-like …; assay: blocking ELISA: VLPs pre-incubated with nanobody, attachment to PGM (HBGA) coated plate
[7] = target: T2, norovirus GII.17 Kawasaki308 virus-like …; assay: direct ELISA on coated VLPs
[8] = target: T5, norovirus GII.17 Kawasaki308 P domain (norovirus GII.17 Kawasaki308); assay: ITC, nanobody into P domain, 25 C
T5 construct: also called GII.17 P domain
T5 chain: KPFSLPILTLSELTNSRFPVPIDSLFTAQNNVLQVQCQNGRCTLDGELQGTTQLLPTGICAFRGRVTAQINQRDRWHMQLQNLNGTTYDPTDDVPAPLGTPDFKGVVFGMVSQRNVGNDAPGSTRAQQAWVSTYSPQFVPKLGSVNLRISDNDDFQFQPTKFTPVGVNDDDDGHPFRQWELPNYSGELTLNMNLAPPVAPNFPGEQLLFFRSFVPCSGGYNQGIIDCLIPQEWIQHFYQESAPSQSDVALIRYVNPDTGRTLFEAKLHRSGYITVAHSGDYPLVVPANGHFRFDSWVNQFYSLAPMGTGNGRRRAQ
Description: as §1

[9] = target: T2, norovirus GII.17 Kawasaki308 virus-like …; assay: blocking ELISA: VLPs pre-incubated with nanobody, attachment to PGM (HBGA) coated plate
[10] = target: T1, norovirus GII.4 Sydney-2012 virus-like …; assay: direct ELISA on coated VLPs, heat map of OD492
[11] = target: T3, norovirus GII.10 Vietnam 026 virus-like …; assay: direct ELISA on coated VLPs, heat map of OD492

B1: NB-76 single domain antibody (VHH, not shown: small tags and cut ends)
VHH: QVQLQESGGGLVQAGGSLRLSCAASGTIFSIDAFGWYRQAPGKQREWVAGITSGSSTIYADFVKGRFTISRDNAKNTVFLQMNSLKPEDTAVYYCNRAKPPTYYSLEPWGKGTQVTVSS
notes: also called GII.4 nanobody
EC50 (read off the curve) [1]: ~2 µg/mL | binding result [2]: no binding | binding result [3]: no binding | nanobody concentration at the cut-off (OD490 0.15) [4]: 0.38 µg/mL | +TΔS [5]: 2.22 kcal/mol | Kd [5]: 56.7 nM | ΔG [5]: -9.89 kcal/mol | ΔH [5]: -12.1 kcal/mol | IC50 [6]: 1.42 µg/mL

B2: NB-2 single domain antibody (VHH)
VHH: QVQLQESGGGLVQAGGSLRLSCAASGRFFSSYAMGWFRQAPGKEREFVAAISWSGGSTYYADSVKGRFTTSRDNAKNTVYLLMNSLKPEDTAVYYCAAAREGAYYPDSYYRTVRYDYWGQGTQVTVSS
notes: also called GII.17 nanobody; not shown: C-terminal His tag ('His-tagged nanobodies')
nanobody concentration at the cut-off (OD490 0.15) [7]: 0.78 µg/mL | +TΔS [8]: 6.14 kcal/mol | Kd [8]: 7.5 nM | ΔG [8]: -11.1 kcal/mol | ΔH [8]: -17.2 kcal/mol | IC50 [9]: 0.85 µg/mL and 0.84 µg/mL | binding result [10]: no binding | binding result [11]: no binding

B3: NB-7 single domain antibody (VHH)
VHH: QVQLQESGGGLVQAGGSLRLSCAASGRTFSSYRMGWYRQAPGKEREFVAAITGSGDSTNYADSVKGRFTVSGNSARNLVYLQMNSLKPEDTAVYLCVAYRTGGPPQWGQGTQVTVSS
notes: as for B2
nanobody concentration at the cut-off (OD490 0.15) [7]: 1.56 µg/mL | +TΔS [8]: 10.2 kcal/mol | Kd [8]: 40.9 nM | ΔG [8]: -10.1 kcal/mol | ΔH [8]: -20.3 kcal/mol | IC50 [9]: 0.88 µg/mL | binding result [10]: no binding | binding result [11]: no binding

B4: NB-45 single domain antibody (VHH)
VHH: QVQLQESGGGLVQAGGSLRLSCTVSGRTDSESTMGWFRQAAGKGREFVAAMNWRYATTYHTDSVKGRFTISKDSAKNTMYLQMNSLKPEDTAVYYCAHRYIYGSLSDSGSYDNWGQGTQVTVSS
notes: as for B2
+TΔS [8]: -4.4 kcal/mol | Kd [8]: 101 nM | ΔG [8]: -9.82 kcal/mol | ΔH [8]: -5.43 kcal/mol | IC50 [9]: 0.46 µg/mL | binding result [10]: no binding | binding result [11]: no binding
